Results on 21 sequences are retold here after a protein production outcome set (Wang et al. 2014).
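Also: failed if final PepcDB status was selected cloned or expressed and not failed if soluble or beyond.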

The series is described as follows: label from the status in PepcDB records.
For “MSIYMIGLIRHSETKVFNKALIQGSLIAYIVFMLFAWGGEAIFSKYLNVRFEAFQIFGGLIFLVIGYRYVFQGADTIGEMRGAPEHLAGTIAMPFMIGPGTISAAVVTGIEMSIGAAALVIGFTMFLTCSILILMKFSHDHLRYKHAKYIDRYFDIVGRLSALLIGTIAVDMIINGVTGLIHKV”, the protein production result is recorded as “failed”.

For the sequence “MEQQEEKRKIKAYQRKSKRSKSGSSSIPLDLVSEILLRLPEKSVARFRCVSKPWSSITTEPYFINLLTTRSPRLLLCFKANEKFFVSSIPQHRQTFETWNKSHSYSQLIDRYHMEFSEEMNYFPPTESVNGLICFQESARLIVWNPSTRQLLILPKPNGNSNDLTIFLGYDPVEGKHKVMCMEFSATYDTCRVLTLGSAQKLWRTVKTHNKHRSDYYDSGRCINGVVYHIAYVKDMCVWVLMSFDVRSEIFDMIELPSSDVHKDVLIDYNGRLACVGREIIEKNGIRLWILEKHNKWSSKDFLAPLVHIDKSLSTNKFLLKGFTHAGEIIYVESMFHKSAKIFFYDPVRNTSRRFELKGFTDDEFVLSNEHGYTLHVFPNHVESQISFT”, the protein production result is “failed”. As for “MKITVIVPTYRRTKDLTRCLESLEKQSRPADEVLVVVRDTDVETWQFLETIAPHSLPLHTTTVRVPGVVAAMNAGLDIAQGDIIAFTDDDAAPHSNWLAQIETHFLAHEQIAGVGGRDWVYHGDRLEDGTCPVVGQVHWFGRVIGNHHIGIGKPREVDVLKGVNMSFRRSAVHGLRFDQRMLGTGAQVHFEVAFCLALKRAGWKLIYDPQIGVNHYLEHHHHHH”, the entry is “failed”; as for “MVEVTIWLAFFAGVVSFLSPCVFPLVPVYLAQLTGTQISGNEITADRKLILMRSLGFILGFTSIFIFLGASSTFIGQLFWGNRQLFEQIGGIIITVFGLQMMGVISIRMLLSEKRLQAKPRQSASFANSVLIGFLFATGWTPCIGLVLGAILVLAGDANTMWSGMSMLFVYSMGLAIPFFLVALLWSRSLHKVRKLNKWLPTIQKGSGVVMVALGVLLFTGQFSTIAAYLARINPFGI”, “failed”; as for “MKQAIGFIDSGVGGLTVVREVLKQLPHEQVYYLGDTARCPYGPRDKEEVAKFTWEMTNFLVDRGIKMLVIACNTATAAALYDIREKLDIPVIGVIQPGSRAALKATRNNKIGVLGTLGTVESMAYPTALKGLNRRVEVDSLACPKFVSVVESGEYKSAIAKKVVAESLLPLKSTKIDTVILGCTHYPLLKPIIENFMGDGVAVINSGEETASEVSALLDYHNLLDATDEEIEHRFFTTGSTQIFKDIAKDWLNMPDMTVEHIKLGK”, “not failed”. Consider “MILMHPKGLIKRDDIIYLSIFIVVFLIALRNYMISPPYTLGDTTILPSTNPGLYTPSATIQYYLSLLIGENNLIKTLNFLAFIIAPISIYFTLGRKGDFFKRLILPLIFTLNPISISIFYDGNGEGILLVYSLQPLVYYLTYKMLYEVKNRLKYLIYLSIVEVVGQIFFFQMFLFSLFFQLPFILLSIKERKYLFLVYPILADLLGFLSELSWEVYLYIGVVPSVLVSPSNTLVRLGLAYYSTIVSALLFAIVITTAFIYRNKYALATLTSVGILLVIYAILQNFRFDIPVISALLAAITTFQTKVYLLSFGLLDLSLFYLKRTREFIIPLLSLLLIVLLVNTGGLQATTYSIFSFKPQPMPSWYYELYDYLSQNNPNNVYSLATQYQYLQYLPGFSGFIYDTSFIHNLTNPFYGMKYLISTSQMNYTGLRLVKTFGPVLVYYNENFTGLVHYLNGSPVSNYSISDMEIRIYDGNPPFVVSLPYSEYWTSAENYNGFLELTTNISQNSLTSLVHELFFVSLFFLILPFILLILEKTPMKTLIVGR”, for which the protein production result is recorded as “failed”.

For the sequence “MIRLNVFVRVNETNREKAIEAAKELTACSLKEEGCIAYDTFESSTRRDVFMICETWQNAEVLAAHEKTAHFAQYVGIIQELAEMKLEKFEF”, the protein production result was “not failed”. Take “MNALVAHNSEAWDKKVETGNEWTVAVEQQVIEQAKKGNWDIRVTPMKDVPKDWFPPIKGLKVLCLASGGGQQGPVLAAAGADVTVLDNSEKQLNQDRMIAERDGLTIHTVKGSMDDLSVFNDESFDVIVHPVANVFVENVLPVWKEAYRVLKRNGILISGFVNPVVFLFDTVLEQQGVLKVKHSIPYADPEDLPKHKVKELIENNEALEFGHSLEDQIKGQIDAGFIVTGFYEDKGGFVLDQYIHTYSATRSVKVLEHHHHHH”: the protein production entry is reported as “not failed”. As for “MSYSKEVNRYVFPLVATNLVQVLIGQISLHFAVDNSNAALSGISVIQNFLFAFGGILGAFSLSFNIRGAKAFYNKEYQRFKNLLKSSLLIDIGIGLSFILFCLGLSRPFLKVFYGFDGQLLELSTTYFKIMSPYILLTLLIFLFSNLLKIEKKTKPIFWIGTLSSVLDVLLNYYLVPLLGIRGAAISSILSLLVIVLGYFIFVKSLVFQALQEASTSKLELIRFGIPLSIQEILESVLFIMAFDAFMGRQGLRILSIYAVVSQLFAIVRTPAFMYAGSIAIFLPEARKKEDEKALIATIFRNSYAVIFIFACLVTVFSNPFAHFLSDEVIDNVLPFTLYTVVVMGATPLYESSKMLLQSNDDEQWVLKITSIVNILSILILLVLQLMGKQTYQSLYGIYGLSLIVLSILFIKRNSEKRVSSRKMTM”, the entry is “failed”. Then “MANYPKELPAQTQSRQPGIESEMNPSPVYEYEDYKGADKLKGKVALITGGDSGIGRAVSVAYAKEGADIAIVYKDEHEDAEETKKRVEQEGVKCLLIAGDVGEEEFCNEAVEKTVKELGGLDILVNNAGEQHPKESIKDITSEQLHRTFKTNFYSQFYLTKKAIDYLKPGSAIINTTSINPYVGNPTLIDYTATKGAINAFTRTMAQALVKDGIRVNAVAPGPIWTPLIPATFPEETVAQFGQDTPMGRPGQPVEHVGCYVLLASDESSYMTGQTLHVNGGNFVT”, with “not failed”; and “MLIAVPLDDTNFSENLKKAKEKGADIVELRVDQFSDTSLNYVKEKLEEVHSQGLKTILTIRSPEEGGREVKNREELFEELSPLSDYTDIELSSRGLLVKLYNITKEAGKKLIISYHNFELTPPNWIIREVLREGYRYGGIPKIAVKANSYEDVARLLCISRQVEGEKILISMGDYGKISRLAGYVFGSVITYCSLEKAFAPGQIPLEEMVELRKKFYRL”, with “not failed”.

In the case of “MYLEKINSPEDVKKLSIDEMKDLSTEIREVLLKKLSEHGGHIGPNLGIVELTIALHYVFNSPKDKIVYDVSHQSYIHKMLTGRKEAFINSEKYDEVSGYSNPEESEHDFFNIGHTSTSISLACGLAKARDVKDETDNVIAIIGDGSLSGGEAYEGLNNAAETGTNMIIIVNDNDMSIAENHGGLYKNLKELRDTEGKSECNFFKAMGLDYHYVKDGHDLEQLIGVFNKVKDTKQPVVVHIHTVKGKGFKFAEKNKEQWHWGMPFVLETGASKVSMGSAENYGNLTGEYLLDYMKRDPKVVAITSGTPAVFGFWKERRNEAGRQFVDVGIAEEHAVALASGIAANGGNPVYGVYSTFLQRTYDQLSQDLCINNNPAVLLVFAASVYGMNDVTHLGLYDIGMMSNIPNMVYLAPTCKEEYFAMLKWAMIQKDHPVAIRVPAMGVIESGVVDNTDYSKLNKYEVTKAGKDVAVIALGDFYQLGQSVTEKLSQENGINATLINPKYITGIDEELLEGLKKEHKLVITLEDGILDGGFGEKIARYYGASDMKVLNYGIKKELLDRYVPDELMKKNRLTDVQIVEDIMNIIK”, the protein production entry is reported as “failed”. As for “TPLPHQLEVAQKVVEKMNGKAILADEVGLGKTVEAGLILKEYMIRGLAKKILILVPASLVSQWVKELQEKFLIPAVEQKKSYVWEQCDIVVSSIDTAKRSPHREIVLSIPYDLVIIDEAHKLKNSKTKNYEFVRNLVKKYCLLLTATPIQNRIEEIFNLVSLLKPGHL”, the entry is “failed”; as for “MLIAILLLLLSIFNIFIGKKVKDKNLAHLLSGFDKEKDDLEYVSSVLGNTFKWIGNLGVIITAIYLILINSISVGLYLICYVGVIILFTVNLTFKTDRHRRSKLKASK”, “failed”; as for “MAGKQQERVNVEGHELTLTNLNKIIYPETGTTKAEVLEYYAAVAPFLIPAAANRPVTRKRWVNGVGTAENPGQVFFQKNLEDSAPKWIPRAAIQHSDHTNVYPMVNNLATLTWMAQIASLEIHVPQWQVDPSGKPLRPDRFVLDLDPGPGAGLPECVEVAKLARSILQDMGMDPVPVTSGSKGIHLYTGLDGTLKSEQVSAFAKELARALESDHPELVVSDMKKSLRHGKVLVDWSQNSGNKTTIVPYSLRGKAHPTVAAPRTWRELSSPSLEHLDYVAVMKRVKTGKDHFAPISERHLPPHGEDENDDDGTAGSSSGTGRSRERVVTVENRLAKYVGMRDPGKTPEPFPSSSAVSASPQSAGSSSDQPKPGDPPPPGGIFVIQEHHARRYHLDLRLEHHGVLASWALPRGIPETPDRNNLAVHTEDHPMEYANFAGVIPKGEYGAGTMTIWDRGEYTCEKWRDGKEVIATLTGEPGGGLGGTKRFALINTGQNWLIHLMKEQPGGRRGTQPAANAAAPKSAPAQPQPQPMPNYSPMLATSGTTADLRGDDWLYELKWDGIRAIITGTESRIRLMSRNGNDLTAAYPELTDRACWPDGDFVADGEIVALGKGSRPDFGRLQLRMNLVKAADIERARATVPVQLMLFDLLYDDGTDLSGLPFHERRERLSGFAERWRVGCPLHLSAVLDHDVEDLMTSAAELGLEGVMAKKADSRYVIGRRSRSWIKLKLEQSQEVVVGGWRPGAGARAGTFGALLLGIPDGDKLHYVGRVGSGFKDWQLRDIMEKLEPLAIVESPFADIPREDAAGATWVSPELVAEVTFGEWTGPGRLRHPVWRGWRPDKSAGEVTLAGS”, “failed”. For the sequence “MRITTLEELLEALDELFDDGSDLTRRGAQDPWERVFSQPGHPLASDLPDACLVDWTRQGLLPSGDGLTALDLGCGLGRNARWLARQGYAVTGLDLSPYAVGQARERTPGPDIRYLEGDVLRDPIPGGPFDVVYDSGCFHHLPPHRRLSYLHTLGQVLRPGGWFGLCTFAWGRMGSAKSDLELLRQGQLEGGVGYTLDDLREMFGGLDFVTGSLLSELEPASEPVFQMDFLQAALFRRPE”, the protein production entry was “failed”. As for “QPTAQQQLTKPAKITCANCKKPLQKGQTAYQRKGSAHLFCSTTCLSSFS”, the entry is “not failed”; as for “TPLAEGAKAIETLCKLIKKGHIVAVKGIGGFHLVCDATKNRVVMELRERKKRPTKPFAVMFRSVFEIGKCTELSPIEEATILSPERPIVLISKRRPHRLEKFLISCDGVAPRVGTMGVFLPYSPLHSLLMEQAKIPLVFTSANLSGEPLIRDFKELCEKLSGVFDYYLDHDREILNPCDDSVVTIQNNKFQV”, “failed”; as for “MAAKTMRKAEELVEKAMKGNDASHDAWHVWRVRDLALSIAREEGLSSNSDSMEIVELAALLHDIGDYKYIRDPSEEKLVENFLDDEGIEETKKTKILTIINGMGFKDELAGVALCESLPEFGVVQDADRLDAIGAIGIARCFTFGGSRNRVLHDPEIKPRTELTKEQYIKREEQTTINHFHEKLLKLKKLMKTEAGKRRAEKRHKFMEEYLKEFYEEWDGST”, “failed”. As for “MNYRNKAFLKYEEDYFIERIIKALKDYEEIIIISNNPEEYKEFGLKVFKDIYPSQGPLSGIHSALNHIKNDYCLVVACDMPFINKDVVNYLGNIKEDYEILIPKFQERLQPLCAIYKKSCKDIMEKELINNSNKLIKTCFKFSMKVVEEFPFIEKVHKKEIKNFYNINTVDEYEDLIKKKEILEHHHHHH”, the entry is “failed”. Then “MYLTREEERILAGEEGEARAKALEVIVKVGEAVGAERLIPIKHAHVSGASYMTIGDAGLRFLARLAESGARFSVPTTVNPVSYDVEEPGAIPMTRLSPRIVKAQSEILKALEAMGADLILTCTPYYTEVPRRVGLREGDSVAWGESSAVAYANSVLGIHTNREGGPLALMAGIAGRTYFYGAHDPEWRKPRVAYRLETPKVLDETEAGVLGEVIATQHRDEHPPLLDAPLGGEAALKEFSAAVGSAGSLAMVHITGVTPGDPGDMIEEVVTMDYGDLARRMEDLAPGFEPDILYVGCPHASIEELRRLYRALSKAGERAGRRTVVSISRSLYLQALREGLVEKLKGLGVRFVRDSCLIVSPFSSGARGVRVATNSYKAYFYLSKKGVEVGLAPIEALPKLVS”, with “failed”.
